# Assay results: the DeepSol protein solubility set
# Assay: soluble on expression in E. coli; label from the status in PepcDB or PDB records
row,Sequence,soluble on expression in E. coli
1,MGSDKIHHHHHHMSTVDPVEQLLANGLKNLWYPICPVGFIEDKPVSLRRLGYKLAVWRDTDGTLHALEDHCPHRGAPLSRGVNLGDRLQCPYHGVEVRCDGVTARVPGSPGCKLEGSQATRFFHITEAAGAVWLYNSAGNVEEAPPLVLPEQLTDPEFSHFLCYTEWRGDYRYVLDNVMDPMHGTYLHKQSHSMSEGESQARFVTRDTDTGFIFEKDGQRGVNFDWTEWADTGMHWMRLEIPYPKTGGPGGNFHIVGSYTPIARDLCAVFHWRCRPLTGWQRDTWRFLYRNRLEARHWAVLEQDREMLEFMEPDANQRENLYQHDLGLVRLRRHLKNLAKAQLELIEARQL,not soluble
2,MIATKDIRIEKDFLGEKEVPSIAYYGVQTLRAVENFPITGYRIHPSLITAMAIVKKAAALANMDTGYLAKDIGHEIAEAAQEIVDGKFHDQFIVDPIQGGAGTSINMNTNEVIANRALERMGYEKGEYAKISPNTHVNMAQSTNDAFPTGIHIATLMRLEELLITMEELHAAFRAKAKEFDHVIKMGRTHLQDAVPIRLGQEFEAYSRVLARDIKRIKQSRQHLYEVNMGATAVGTGLNANPTYIEQVVKHLRTFSGFPLVGAEHLVDATQNTDAYTEVSAALKVCMMNMSKIANDLRIMASGPRVGLAEIQLPARQPGSSIMPGKVNPVMAEVINQVAFQVIGNDHTICLASEAGQLELNVMEPVLVFNLIQSISIMNNGFRVFREYCIKGITANEELLKQYVEKSVGIITAVNPHIGYEAASRIAREAIETGKSVRELCLEHGVLTEEELDIILDPFEMTHPEIAGASLLKDKKM,not soluble
3,MTVETQLNPTQPVNQQIYRILRRDIVHCLIPPGTPLSEKEVSTRFNVSRQPVREAFIKLAENGLIQIRPQRGSYVNKISLSQVQNGCFVRQAIECAVVRRAAAMITDNQCYQLAQNLHLQHIAIERKQIDDFFQLDDDFHQKLAQIADCQLAWDTIENIKATIDRVRYMSLDHVSPPEMLLRQHHDIFSALENRDGNAVESAMTQHLQEISESVQLIRQENSGWFSEE,not soluble
4,MVSRLSTGILDFDKLIQGGIPQGFFIALTGEPGTGKTIFSLHFIAKGLRDGDPCIYVTTEESRDSIIRQAKQFNWDFEEYIEKKLIIIDALMKEKEDQWSLVNLTPEELVNKVIEAKQKLGYGKARLVIDSVSALFLDKPAMARKISYYLKRVLNKWNFTIYATSQYAITTSQAFGFGVEHVADGIIRFRRMIRNGELHRYILIEKMRQTDHDKHVWEIDIVNGKGIVLKGRLEE,soluble
5,MVKPMHLFAVVDALEQAQQFQQVLASRDVSTELVQIEQLNARFLRHHPELALCVDLDGLWLSANGMKMQPDWQAEIPRLKRASLKSEMIARACQINEQPSLIDATAGLGHDSLLMAYLGAHVTLVERHPVLFTLLEDAKSKAENDPFLSKYMQRIHLIFQDAHYYLQQCNQDDRKVDVIYLDPMFPQRDQHHQVIKKQAQVKKQMQLLHLLLPEDGEMDLGDQLLPLAQQIASRVVVKRPKHAVFLNEQQPDHQWQGDACRFDAYFQISM,not soluble
6,MSLKLVRKFARDIEVDELAICIPLEYKSACLIYELSRYTNVYAAKLDDFSTKPEVVSWLKEKGVEVKMKRDVVNAEYFLDCAAVLSRVAVKSGKERLKVVELTKTGEEYLRKMDVRMKAISLDSSTLKGTGENTHGTAFGLLDALLRLNVFLPGKKALILGFGRVGRGCARLLKSVGCDVAVWDNDETRQIEALYEGFRVEKDFTAEVVVTCTGVKGVLGKEELEEISDGSIILNMGAEMEIEPAGELIKDYGLVKEYEIAGKRYFLVADGYAANLALGSGTPIEVMDRTFSAAILALNHLSRSDFDGIIPLPHHIESTILEAIMMYEGHHHHHH,not soluble
7,GPGSMTSVETRIQALVQRYTLMENNINKLRKALASLGEGQQNANTTPRNEATAVAHHRDPCDLKELQPCPQDTPEVAALRRWCIEHSLTTAVFRWVPSDYYQHTLQWRRDELAAPSVHHLCKSILMENTHCTNKDCGVRENSRYYLIVYPYTEKFDAEMVMRHVKGLNEGLGKKKFNFRLAAPDVALQLTGFGHGAVAPFGTPTEIPVILSDKILQLTPAVFWMGGGHVDCKVRVDVEQFMEVIKPIVASVTTPLSAEELGQLVD,soluble
8,MEIIKISPRGYCYGVIDAMVIAKNASLDPNLPRPIHILGMIVHNKHVTDAFESIGIYTVDGANREEILDKITTGTVIFTAHGVSPSVKAKAVAKGLTTIDATCPDVLHTYNLILEKQAAGYEIIYIGKKGHPEPEGAYGTAPDVVHLVETKADIDALSLLSDKIFVTNQTTMSKWDVADLMHYIKGKFPKAIQHQEICMATQVRQEAVALQAKDADLTIVVGDPRSNNTARLAQVSIEKAGTKAYRIADITELDIEWIKDAKKVAVTAGASTPTQLVREVLLFLEQFDAADKTTWKREHNQDFERILPKTKNKYMAEKRSQRLAHLKNGGSLEHHHHHH,not soluble
9,MGSDKIHHHHHHMGGRGSGKTRAGAEWVSGMALGLPPFAGKPSGHIALVGETFNDAREVMVDGPSGILSVSRLVRPRYEASRRRLIWDNGAVATLFSSEDPDSLRGPQFDAAWCDELAKWKNPQETWDMLQFGLRLGDNPRQVVTTTPRAVPLLKALLTDRTVSMTHMRTAENAGNLAEGFMQTIARRYAGTRLGRQELDGELVEERPGALWSRDRIEQCFEENPPPLARIVVAVDPPASSGKASDACGIVVAGIDAEGVGHVLADESMTMAKPHQWARRAIALYHTHEADAIVAEVNQGGEMVAAEDPSVPVLKRRASRGKWLRAEPVAALYEQGRVRHAGRFPALEDEMCDFAPEGLSSGRSPDRLDALVWALGELMLGADHKPRIRRFG,not soluble
10,MKKWFLLLIASLVGYIAYEDLTVGTLPASSKTPVVRENIGIPAYKVIKIKAGDTLLSIAEREQQGPLPVSIETLIRDFEKLNPEAKADALQIGKTYKIPVYEK,not soluble
11,MAHHHHHHMEKYKNILEKLEWYKNKSSEKYEFGIYEIDKREVFITTKYSYGFVNNKPLLPGHILLTTLKKKKHYNDLDIEEIIDINLLCNFMCYIMGNLFNTTDFSIAIQDGKEAGQTVDHVHIHIIPRKINDYKNNDNIYNDMNKINLGYGKNIICNSCNNTINVCSQNEIERNFKLEEFNTSIRSIEQMEEEANLIKSYINEKFSS,not soluble
12,MSLRSRDITLTGTYLPNTPVTLVVDGVAQVQGMTDSAGRFRLTGTLEPGRNRVYVMGEGPLASREYAVRYLPPYTDMAGHWAEAVVDALHERGVVSLYPLPRFEPEAQVTRMEFAVMVARALRLPAAEEQAPFTDVAVMPQWALLEVAAAVKAGIIKGMPDGSFAPDRLVTRAEMAAMLTRALAWAGLEVKPEAPEFADQAEIPDWAVEPVAAAVRHGLIKGYPDGTFRPGSPTTRAEAATMVHRLLQTVIGLNPEGHHHHHH,soluble
13,MTVKSQQQIIDSFKQANQDQLFQYYDSLTIDQQQEFIDQLSTIEEPAKLISTVEQAIQFSQTNSTSRNFTQLPNEQTASTLDLSKDILQNWTELGLKAIGNGEVAVLLMAGGQGTRLGSSAPKGCFNIELPSQKSLFQIQAEKILKIEQLAQQYLKSTKKPIINWYIMTSGPTRNATESFFIENNYFGLNSHQVIFFNQGTLPCFNLQGNKILLELKNSICQSPDGNGGLYKALKDNGILDDLNSKGIKHIHMYCVDNCLVKVADPIFIGFAIAKKFDLATKVVRKRDANESVGLIVLDQDNQKPCVIEYSEISQELANKKDPQDSSKLFLRAANIVNHYYSVEFLNKMIPKWISSQKYLPFHIAKKKIPSLNLENGEFYKPTEPNGIKLEQFIFDVFPSVELNKFGCLEVDRLDEFSPLKNADGAKNDTPTTCRNHYLERSSKWVIQNGGVIDNQGLVEVDSKTSYGGEGLEFVNGKHFKNGDII,soluble
14,MGSDKIHHHHHHMVRPQRNKKRFILILNGVWNLEVTSKDRPIAVPGSWNEQYQDLCYEEGPFTYKTTFYVPKELSQKHIRLYFAAVNTDCEVFLNGEKVGENHIEYLPFEVDVTGKVKSGENELRVVVENRLKVGGFPSKVPDSGTHTVGFFGSFPPANFDFFPYGGIIRPVLIEFTDHARILDIWVDTSESEPEKKLGKVKVKIEVSEEAVGQEMTIKLGEEEKKIRTSNRFVEGEFILENARFWSLEDPYLYPLKVELEKDEYTLDIGIRTISWDEKRLYLNGKPVFLKGFGKHEEFPVLGQGTFYPLMIKDFNLLKWINANSFRTSHYPYSEEWLDLADRLGILVIDEAPHVGITRYHYNPETQKIAEDNIRRMIDRHKNHPSVIMWSVANEPESNHPDAEGFFKALYETANEMDRTRPVVMVSMMDAPDERTRDVALKYFDIVCVNRYYGWYIYQGRIEEGLQALEKDIEELYARHRKPIFVTEFGADAIAGIHYDPPQMFSEEYQAELVEKTIRLLLKKDYIIGTHVWAFADFKTPQNVRRPILNHKGVFTRDRQPKLVAHVLRRLWSEV,not soluble
15,GTVSATSPNKCKRPMNAFMLFAKKYRVEYTQMYPGKDNRAISVILGDRWKKMKNEERRMYTLEAKALAEEQKRLNPDCWK,soluble
16,MSYDTDPFRGEFDSLEEFADRVSDVLKCPVTIEDANHRLIAYSAHDDYTDPARTATIISRRVPEKVINSLWKQGAIPALLKSREPVRVPPIHDVGLGSRVAVSIWKNDEVIGFIWVLETNRTLSPEEMEWLKLAAKAAKNKVLQLYMRKNKKEERVQELFWKLLTGHIAREDDIRAHLAAMQIPTAPQFAVVVFRFAADLTAEMERQISYLLQTTQQLPLLLYTTDGRDVILLAAPKTDQPLKELNAFIESFAAKMKERFHIHDVQCGFGGVYGIYRLIEKSYREALAVLALKEKLGDEIKSVYGYAQLGIYQFFDLLLEQKRQGEWTNPALTKLQSYDQKHHSDLVKTFETFFDHNENAQETADVLNVHPNTLAYRLKRIADIAELDLNDMNQKIKLYIDIKLAKYEARG,not soluble
17,MSNWPYPHIVAHRGGGKLAPENTLAAIDVGARYGHTMIEFDAKLSKDGEIFLLHDDNLERTSNGWGVAGELNWQDLLRVDAGGWFSGEFKGEPLPLLSQVAERCRKHGMMANIEIKPTTGSGRLTGRVVALAARELWAGMTPPLLSSFEIEALEAAQAAAPELPRGLLLDKWREDWRELTTRLGCVSLHLNHKLLDETRVQEIKAAGLRILVYTVNQPQRAAELLRWGVDCICTDRIDDIGPHFQF,not soluble
18,GHLYLVPTPIGNLDDMTFRAVKTLTAVDLIAAEDTRNTQKLLNHFEITTKQISFHEHNTQERIPQLIAKLKQGMQIAQVSDAGMPSISDPGHELVNACIDAHIPVVPLPGA,not soluble
19,MGDICETVEATFHGVAYLLTVSTIEGETLCVEVEQKSDCSRWRGDFTSRYIEDITAKTGNFKKFPVFVKMLLSALKQASDSVFVDLLTYQDLEVLKSRKAGGQAPPPRTQPPNNKRYLIMTYAAEFDRVHYPLPLLFEENPDPQHLKRIISQLRSEVEGLQVEAGNRRGGEVSAELRRLREENAALQRQLKQMERSGSGVGAGAESSEARELARELRTVRKERDLLQARVEAAEAELERERGLHRRELRRRAKEQQELVDELGRCKEQIRELKMRIRQLTEDLEARDRRMNSTDRIRSVYARGSNDGSTSGVAPRRPSSGGRGPSSNYMAPTRGADSRSNSRGRGTSSAERSRPNSAPIGGPRPRFDPTEYVRQRKERESAAVGGRRSNAPTPPRSAGTSRASSVVGSRPASAERLPPIRTASPTNSRPSSTERYRPGSGGPPGRTSAGGSRGAADRAGARGPDPYAPRSRGASPSGRATAWGEPGASGGGAGGWSKFPGGGGGGVGGSGQRISSNSPRSMSPARALAEVKQKLSTFVAGRGGSLQGDDASSAHGEHMSQSSKSQVFEDATAEIADIDSRLHALQDFLRMAKTSSTSTSTTQA,not soluble
